Results published in patent US20140341917A1 (Merck KGaA, published 2014).
Positions count from the first letter of the chain named. Names and notes keep the numbering of the source.

T1: hu-B7.2-huFc (human, UniProt P42081 26-245, limits assumed)
T1 construct: not shown: human Fc (huFc)
T1 sequence (looked up): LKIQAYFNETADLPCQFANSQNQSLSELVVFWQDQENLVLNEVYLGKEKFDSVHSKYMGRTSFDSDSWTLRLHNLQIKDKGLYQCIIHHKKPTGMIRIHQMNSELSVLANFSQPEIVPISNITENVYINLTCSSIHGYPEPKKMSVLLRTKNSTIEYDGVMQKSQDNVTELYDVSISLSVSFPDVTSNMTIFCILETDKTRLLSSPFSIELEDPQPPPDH

T2: huB7-H2-huFc (human, UniProt O75144 19-258, limits assumed)
T2 construct: not shown: human Fc (huFc)
T2 sequence (looked up): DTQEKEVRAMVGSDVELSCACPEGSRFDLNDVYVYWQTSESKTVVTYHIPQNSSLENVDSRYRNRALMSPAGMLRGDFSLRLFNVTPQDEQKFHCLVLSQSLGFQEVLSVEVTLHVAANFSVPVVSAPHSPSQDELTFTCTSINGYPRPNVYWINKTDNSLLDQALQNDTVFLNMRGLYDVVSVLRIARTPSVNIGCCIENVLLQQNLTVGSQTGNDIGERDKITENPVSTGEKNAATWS

T3: hu-B7.1-huFc (human, UniProt P33681 35-242, limits assumed)
T3 construct: not shown: human Fc (huFc)
T3 sequence (looked up): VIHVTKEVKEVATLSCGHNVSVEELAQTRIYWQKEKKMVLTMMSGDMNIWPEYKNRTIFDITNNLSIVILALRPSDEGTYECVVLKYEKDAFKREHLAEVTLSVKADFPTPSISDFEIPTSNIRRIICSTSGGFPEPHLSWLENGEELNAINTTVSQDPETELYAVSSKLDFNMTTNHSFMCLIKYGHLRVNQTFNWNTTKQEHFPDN

T4: huB7-H3-huFc (human, UniProt Q5ZPR3-2 29-245, limits assumed)
T4 construct: not shown: human Fc (huFc)
T4 sequence (looked up): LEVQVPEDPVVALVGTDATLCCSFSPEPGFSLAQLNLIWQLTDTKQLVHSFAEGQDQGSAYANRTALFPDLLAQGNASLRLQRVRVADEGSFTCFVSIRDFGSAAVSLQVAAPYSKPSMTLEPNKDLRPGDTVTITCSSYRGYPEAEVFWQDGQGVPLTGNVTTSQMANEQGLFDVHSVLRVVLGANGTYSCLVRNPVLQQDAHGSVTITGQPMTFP

T5: hu-PDL-2-huFc (human, UniProt Q9BQ51 20-219, limits assumed)
T5 construct: not shown: human Fc (huFc)
T5 sequence (looked up): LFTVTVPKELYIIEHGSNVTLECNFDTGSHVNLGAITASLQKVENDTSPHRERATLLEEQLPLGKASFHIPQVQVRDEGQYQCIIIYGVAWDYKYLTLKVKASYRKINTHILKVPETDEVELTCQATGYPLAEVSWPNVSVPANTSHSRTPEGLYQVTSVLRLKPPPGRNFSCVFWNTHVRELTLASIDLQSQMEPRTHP

B1: A09-188-1 (antibody, human IgG1, lambda, V domains shown)
VH: EVQLLESGGGLVQPGGSLRLSCAASGFTFSMYMMMWVRQAPGKGLEWVSSIYPSGGITFYADSVKGRFTISRDNSKNTLYLQMNSLRAEDTAIYYCARIKLGTVTTVDYWGQGTLVTVSS
VL: QSALTQPASVSGSPGQSITISCTGTSSDVGAYNYVSWYQQHPGKAPKLMIYDVSNRPSGVSNRFSGSKSGNTASLTISGLQAEDEADYYCSSYTSSSTRVFGTGTKVTVLG
notes: Parent antibody, lambda light chain, expressed as IgG
B2: A09-246-2 (antibody, human IgG1, lambda, V domains shown)
VH: B1 VH with M31S, M33I, S63T, I93V
VL: B1 VL with A31G
notes: lambda light chain
B3: A09-248-2 (antibody, human IgG1, lambda, V domains shown)
VH: B1 VH with M31I, M33I, M35F, S63T, I93V
VL: B1 VL with A31G
notes: also called VL-A31G; VH-M31I, M33I, M35F, S63T, I93V

Columns and labels:
mouse PD-L1 = molecular target: T6, mouse PD-L1 (mouse, UniProt Q9EP73 19-238, limits assumed); assay: ELISA, later Biacore and FACS on PD-L1 expressing cells (hit selection, IgG format)
T6 construct: Biacore protein
T6 sequence (Q9EP73 19-238 limits assumed): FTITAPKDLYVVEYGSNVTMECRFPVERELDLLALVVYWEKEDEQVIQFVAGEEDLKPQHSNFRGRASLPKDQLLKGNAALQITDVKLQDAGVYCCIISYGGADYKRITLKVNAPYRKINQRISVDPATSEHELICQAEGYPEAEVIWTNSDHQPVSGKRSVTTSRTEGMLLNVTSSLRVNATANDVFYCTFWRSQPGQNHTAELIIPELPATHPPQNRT

human PD-L1 [1] = molecular target: T7, human PD-L1 (human, UniProt Q9NZQ7 19-238, limits assumed); assay: Biacore kinetic profile
T7 construct: Protein used in the Biacore assays of 3.1
T7 sequence (Q9NZQ7 19-238 limits assumed): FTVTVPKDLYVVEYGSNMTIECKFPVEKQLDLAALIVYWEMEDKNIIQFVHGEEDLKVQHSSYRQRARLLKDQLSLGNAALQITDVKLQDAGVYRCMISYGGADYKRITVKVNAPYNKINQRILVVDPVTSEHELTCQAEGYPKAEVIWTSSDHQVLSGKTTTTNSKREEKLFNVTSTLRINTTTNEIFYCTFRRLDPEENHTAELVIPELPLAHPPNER

human PD-L1 [2] = molecular target: T7, human PD-L1; assay: Biacore; relative to A09-188-1
hu-B7.2-huFc = molecular target: T1, hu-B7.2-huFc; assay: Biacore
huB7-H2-huFc = molecular target: T2, huB7-H2-huFc; assay: Biacore
hu-B7.1-huFc = molecular target: T3, hu-B7.1-huFc; assay: Biacore
huB7-H3-huFc = molecular target: T4, huB7-H3-huFc; assay: Biacore
hu-PDL-2-huFc = molecular target: T5, hu-PDL-2-huFc; assay: Biacore
[3] = molecular target: T8, cynomolgus monkey PD-L1 expressed on the HEK cell surface (cynomolgus monkey, UniProt G7PSE7 19-290); assay: direct FACS binding, HEK cells expressing cynomolgus monkey PD-L1
T8 construct: The sentence prints only 'cynomolgus monkey expressed on the HEK cell surface'
T8 sequence (G7PSE7 entry or part of it limits assumed): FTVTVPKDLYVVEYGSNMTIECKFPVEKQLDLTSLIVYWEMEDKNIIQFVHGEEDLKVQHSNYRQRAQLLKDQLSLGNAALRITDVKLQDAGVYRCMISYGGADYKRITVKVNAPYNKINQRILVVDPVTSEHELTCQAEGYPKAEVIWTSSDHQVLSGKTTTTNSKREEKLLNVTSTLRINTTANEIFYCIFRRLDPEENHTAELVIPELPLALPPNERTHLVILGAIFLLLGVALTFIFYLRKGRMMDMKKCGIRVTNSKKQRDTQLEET

binding result (mouse PD-L1) | Kd (human PD-L1 [1]) | t½ (human PD-L1 [1]) | Relative KD (human PD-L1 [2]) | binding result (hu-B7.2-huFc) | binding result (huB7-H2-huFc) | binding result (hu-B7.1-huFc) | binding result (huB7-H3-huFc) | binding result (hu-PDL-2-huFc) | EC50 [3] | Binder
binds | 5.29 nM | 0.22 h | 1 | – | – | – | – | – | – | B1
– | – | – | – | no binding | no binding | no binding | no binding | no binding | 0.94 nM | B2
– | 0.1 nM | 7.27 h | 0.02 | – | – | – | – | – | – | B3
